Assays:
[1] = target: Recombinant human Flt-1/Fc chimera (R&D Systems) (human) (UniProt P17948); test: fluorescence plate assay; control peptide at 10 µM on immobilized Flt-1/Fc
[2] = target: Recombinant human Flt-1/Fc chimera (R&D Systems) (human) (UniProt P17948); test: fluorescence plate assay; control peptide at 1 µM on immobilized Flt-1/Fc
[3] = target: Recombinant human Flt-1/Fc chimera (R&D Systems) (human) (UniProt P17948); test: fluorescence plate assay; control peptide at 0.1 µM on immobilized Flt-1/Fc
[4] = target: Recombinant human Flt-1/Fc chimera (R&D Systems) (human) (UniProt P17948); test: fluorescence plate assay; control peptide at 100 µM on immobilized Flt-1/Fc
[5] = target: Recombinant human Flt-1/Fc chimera (R&D Systems) (human) (UniProt P17948); test: fluorescence plate assay; control peptide at 0 µM on immobilized Flt-1/Fc

Sequence of Recombinant human Flt-1/Fc chimera (R&D Systems) (human) (P17948 other isoform, or with tags, fused parts or gaps mutant limits assumed): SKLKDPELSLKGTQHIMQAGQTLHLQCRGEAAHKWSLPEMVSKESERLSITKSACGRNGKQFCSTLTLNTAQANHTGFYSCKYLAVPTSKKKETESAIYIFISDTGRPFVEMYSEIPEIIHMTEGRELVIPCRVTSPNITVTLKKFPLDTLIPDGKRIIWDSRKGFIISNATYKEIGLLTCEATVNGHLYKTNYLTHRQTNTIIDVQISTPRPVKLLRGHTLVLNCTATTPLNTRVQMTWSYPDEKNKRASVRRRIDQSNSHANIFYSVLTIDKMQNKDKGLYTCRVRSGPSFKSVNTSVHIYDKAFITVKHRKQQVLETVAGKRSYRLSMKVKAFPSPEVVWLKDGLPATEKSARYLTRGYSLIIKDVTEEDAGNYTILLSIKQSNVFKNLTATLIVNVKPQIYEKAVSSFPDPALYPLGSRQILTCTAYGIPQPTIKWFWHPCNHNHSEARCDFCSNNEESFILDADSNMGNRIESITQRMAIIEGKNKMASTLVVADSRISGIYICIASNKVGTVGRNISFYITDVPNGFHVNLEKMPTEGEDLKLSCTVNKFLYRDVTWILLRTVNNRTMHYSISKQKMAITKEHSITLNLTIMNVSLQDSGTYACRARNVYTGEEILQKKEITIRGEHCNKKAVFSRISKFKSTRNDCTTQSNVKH

Fluorescence [1]: 493
Fluorescence [2]: 20
Fluorescence [3]: 7
Fluorescence [4]: 1100
Fluorescence [5]: 0
Substance: Control peptide (Table 5)
